These results are taken from patent US20180148504A1.

Assay [1] addresses recombinant purified FRα (ECL assay calibrator) (human) (UniProt P15328). As to the kind of experiment: ECL sandwich competition; competitors 9F3 capture / 24F12 detection; FRα standard STD02; MORAb-003 10 µg/mL.
Assay [2] shares this target. As to the kind of experiment: ECL sandwich capture 30G6.G6.G4.E9 / detection 1A8.G11.E7; calibrator incubated overnight with 10 µg/mL MORAb-003.
Assay [3] has the same target. As to the kind of experiment: ECL sandwich capture 30G6.G6.G4.E9 / detection 26A9.C4; calibrator incubated overnight with 10 µg/mL MORAb-003.
For assay [4], the target named is endogenous folate receptor alpha in human serum and plasma samples (human) (UniProt P15328). Put plainly: ECL sandwich capture 1C6.E12.G8 / detection 19D4.B7; serum incubated overnight with 10 µg/mL MORAb-003.
Sequence of endogenous folate receptor alpha in human serum and plasma samples (human) (P15328 25-234 limits assumed, form in doubt): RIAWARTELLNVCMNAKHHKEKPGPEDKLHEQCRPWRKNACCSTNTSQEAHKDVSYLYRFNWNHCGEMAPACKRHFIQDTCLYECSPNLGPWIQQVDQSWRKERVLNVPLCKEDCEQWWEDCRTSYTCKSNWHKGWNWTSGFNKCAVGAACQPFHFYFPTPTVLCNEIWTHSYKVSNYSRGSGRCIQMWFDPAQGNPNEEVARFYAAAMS
The target in assay [5] is recombinant purified FRα (ECL assay calibrator) (human) (UniProt P15328). Put plainly: ECL sandwich competition; competitors 9F3 capture / 24F12 detection; FRα standard STD04; MORAb-003 10 µg/mL.
Sequence of recombinant purified FRα (ECL assay calibrator) (human) (P15328 25-234 limits assumed): as the sequence (P15328 25-234 limits assumed, form in doubt) above
Assay [6] has the same target. As to the kind of experiment: ECL sandwich capture 6A2.G7 / detection 30G6.G6.G4.E9; calibrator incubated overnight with 10 µg/mL MORAb-003.
Assay [7] shares this target. As to the kind of experiment: ECL sandwich capture 6A2.G7 / detection 1A8.G11.E7; calibrator incubated overnight with 10 µg/mL MORAb-003.
The target is the same in assay [8]. As to the kind of experiment: ECL sandwich capture 26A9.C4 / detection 30G6.G6.G4.E9; calibrator incubated overnight with 10 µg/mL MORAb-003.
The target is the same in assay [9]. As to the kind of experiment: ECL sandwich capture 24H8.F3 / detection 6A2.G7; calibrator incubated overnight with 10 µg/mL MORAb-003.
For assay [10] the target is unchanged. Put plainly: ECL sandwich capture 19D4.B7 / detection 28H12.G9; calibrator incubated overnight with 10 µg/mL MORAb-003.
For assay [11] the target is unchanged. As to the kind of experiment: ECL sandwich capture 19D2.G9 / detection 6A2.G7; calibrator incubated overnight with 10 µg/mL MORAb-003.
Assay [12] addresses endogenous folate receptor alpha in human serum and plasma samples (human) (UniProt P15328). As to the kind of experiment: ECL sandwich capture 1A8.G11.E7 / detection 19D4.B7; serum incubated overnight with 10 µg/mL MORAb-003.
Assay [13] concerns the target recombinant purified FRα (ECL assay calibrator) (human) (UniProt P15328). Put plainly: ECL sandwich competition; competitors 9F3 capture / 24F12 detection; FRα standard STD05; MORAb-003 10 µg/mL.
The target is the same in assay [14]. As to the kind of experiment: ECL sandwich capture 30G6.G6.G4.E9 / detection 24H8.F3; calibrator incubated overnight with 10 µg/mL MORAb-003.
Assay [15] has the same target. As to the kind of experiment: ECL sandwich capture 30G6.G6.G4.E9 / detection 24H8.D3; calibrator incubated overnight with 10 µg/mL MORAb-003.
The target is the same in assay [16]. Put plainly: ECL sandwich capture 28H12.G9 / detection 19D4.B7; calibrator incubated overnight with 10 µg/mL MORAb-003.
The target is the same in assay [17]. As to the kind of experiment: ECL sandwich capture 1A8.G11.E7 / detection 19D4.B7; calibrator incubated overnight with 10 µg/mL MORAb-003.
Assay [18] shares this target. As to the kind of experiment: ECL sandwich competition; competitors 9F3 capture / 24F12 detection; FRα standard STD06; MORAb-003 10 µg/mL.
The target in assay [19] is endogenous folate receptor alpha in human serum and plasma samples (human) (UniProt P15328). As to the kind of experiment: ECL sandwich capture 6A2.G7 / detection 6A2.G7; serum incubated overnight with 10 µg/mL MORAb-003; no % sign in this cell.
Assay [20] deals with recombinant purified FRα (ECL assay calibrator) (human) (UniProt P15328). As to the kind of experiment: ECL sandwich capture 6A2.G7 / detection 24H8.D3; calibrator incubated overnight with 10 µg/mL MORAb-003.
Assay [21] deals with endogenous folate receptor alpha in human serum and plasma samples (human) (UniProt P15328). As to the kind of experiment: ECL sandwich capture 1D2.G8.G10 / detection 19D4.B7; serum incubated overnight with 10 µg/mL MORAb-003.
Assay [22] shares this target. As to the kind of experiment: ECL sandwich capture 19D4.B7 / detection 1C6.E12.G8; serum incubated overnight with 10 µg/mL MORAb-003.
Assay [23] concerns the target recombinant purified FRα (ECL assay calibrator) (human) (UniProt P15328). As to the kind of experiment: ECL sandwich capture 19D4.B7 / detection 6A2.G7; calibrator incubated overnight with 10 µg/mL MORAb-003.
The target of assay [24] is endogenous folate receptor alpha in human serum and plasma samples (human) (UniProt P15328). Put plainly: ECL sandwich capture 19D4.B7 / detection 2F11.F8; serum incubated overnight with 10 µg/mL MORAb-003.

B1: farletuzumab (MORAb-003) (antibody, part only; not given: Constant regions, V domains shown, not shown: another chain or arm of the molecule)
VH: EVQLVESGGGVVQPGRSLRLSCSASGFTFSGYGLSWVRQAPGKGLEWVAMISSGGSYTYYADSVKGRFAISRDNAKNTLFLQMDSLRPEDTGVYFCARHGDDPAWFAYWGQGTPVTVSS
VL: DIQLTQSPSSLSASVGDRVTITCSVSSSISSNNLHWYQQKPGKAPKPWIYGTSNLASGVPSRFSGSGSGTDYTFTISSLQPEDIATYYCQQWSSYPYMYTFGQGTKVEIK
Regarding B1, the % of signal without MORAb-003 (MORAb-003 interference) in assay [1] was found to be 70%; in [5] it was 73%; in assay [13], 71%; in assay [18] it was 103%. Moreover, the Drug Suppression of Cal Signal at 500 pg/mL was 2% in assay [2]; -11% in assay [3]; -1% in [6]; 2% in [7]; -28% in assay [8]; 7% in assay [9]. In addition, the Drug Suppression of Cal Signal at 500 pg/mL in [10] is -21%; in assay [11] it was -4%; in [14], -8%; in assay [15], -2%; in assay [16], -17%; in assay [17] it was -16%. Moreover, the Drug Suppression of Cal Signal at 500 pg/mL in assay [20] and in assay [23] was -9% throughout. The Drug suppression of serum is -52% in [4]; -4.78% in assay [12]; -45.8 in assay [19]; 84.6% in [21]; -6.01% in assay [22]; 0.82% in assay [24].
